These substances were tested against EED labelled for microscale thermophoresis (human) (UniProt O75530) (assay: MST).
EED labelled for microscale thermophoresis (human), sequence (O75530 whole entry): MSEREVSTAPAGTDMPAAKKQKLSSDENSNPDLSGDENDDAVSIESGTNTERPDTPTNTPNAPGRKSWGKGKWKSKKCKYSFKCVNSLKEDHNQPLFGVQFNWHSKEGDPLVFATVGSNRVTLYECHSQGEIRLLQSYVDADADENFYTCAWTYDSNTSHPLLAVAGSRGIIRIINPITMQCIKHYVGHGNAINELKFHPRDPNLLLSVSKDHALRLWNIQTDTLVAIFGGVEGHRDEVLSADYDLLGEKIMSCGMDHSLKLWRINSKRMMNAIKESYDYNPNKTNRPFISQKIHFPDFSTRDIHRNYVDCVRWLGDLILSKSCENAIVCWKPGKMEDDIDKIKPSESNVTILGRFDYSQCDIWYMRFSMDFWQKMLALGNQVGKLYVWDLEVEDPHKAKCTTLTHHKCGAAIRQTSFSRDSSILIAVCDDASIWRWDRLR

Going from H3K27me3 peptide to “NOP16 aa 25-32 peptide, di-methylated K29 (from UniProt Q9Y3C1 25-32)”, the Kd rises from 0.95 µM to 131 µM (140-fold). The first binds more tightly here.

First: NOP16 aa 25-32 peptide, mono-methylated K29 (from UniProt Q9Y3C1 25-32)
Second: NOP16 aa 25-32 peptide, tri-methylated K29 (from UniProt Q9Y3C1 25-32)
The Kd of the first is 83-fold higher: 100 µM for the first, 1.21 µM for the second. The second binds more tightly here.

Substance “NOP16 aa 25-32 peptide, unmethylated K29 (from UniProt Q9Y3C1 25-32)” has a Kd of 11.6 µM.

The substances below were run against JMJD3 JmjC domain labelled for microscale thermophoresis (UniProt O15054) (assay: MST).
JMJD3 JmjC domain labelled for microscale thermophoresis, sequence (O15054 1339-1502): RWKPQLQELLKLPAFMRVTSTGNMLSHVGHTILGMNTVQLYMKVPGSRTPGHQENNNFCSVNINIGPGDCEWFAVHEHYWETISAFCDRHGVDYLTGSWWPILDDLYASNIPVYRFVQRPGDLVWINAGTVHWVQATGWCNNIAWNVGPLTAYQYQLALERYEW

With H3K27me3 peptide the Kd was 8.59 µM.

Source: doi:10.1101/2023.06.13.544862
